Data on one substance can be found in publication PMC2928130.

This experiment addresses GST-RPGR^1–15 H98Q (UniProt Q92834). Kind of experiment: pull-down.
Sequence of UniProt Q92834 (Q92834 whole entry H98Q): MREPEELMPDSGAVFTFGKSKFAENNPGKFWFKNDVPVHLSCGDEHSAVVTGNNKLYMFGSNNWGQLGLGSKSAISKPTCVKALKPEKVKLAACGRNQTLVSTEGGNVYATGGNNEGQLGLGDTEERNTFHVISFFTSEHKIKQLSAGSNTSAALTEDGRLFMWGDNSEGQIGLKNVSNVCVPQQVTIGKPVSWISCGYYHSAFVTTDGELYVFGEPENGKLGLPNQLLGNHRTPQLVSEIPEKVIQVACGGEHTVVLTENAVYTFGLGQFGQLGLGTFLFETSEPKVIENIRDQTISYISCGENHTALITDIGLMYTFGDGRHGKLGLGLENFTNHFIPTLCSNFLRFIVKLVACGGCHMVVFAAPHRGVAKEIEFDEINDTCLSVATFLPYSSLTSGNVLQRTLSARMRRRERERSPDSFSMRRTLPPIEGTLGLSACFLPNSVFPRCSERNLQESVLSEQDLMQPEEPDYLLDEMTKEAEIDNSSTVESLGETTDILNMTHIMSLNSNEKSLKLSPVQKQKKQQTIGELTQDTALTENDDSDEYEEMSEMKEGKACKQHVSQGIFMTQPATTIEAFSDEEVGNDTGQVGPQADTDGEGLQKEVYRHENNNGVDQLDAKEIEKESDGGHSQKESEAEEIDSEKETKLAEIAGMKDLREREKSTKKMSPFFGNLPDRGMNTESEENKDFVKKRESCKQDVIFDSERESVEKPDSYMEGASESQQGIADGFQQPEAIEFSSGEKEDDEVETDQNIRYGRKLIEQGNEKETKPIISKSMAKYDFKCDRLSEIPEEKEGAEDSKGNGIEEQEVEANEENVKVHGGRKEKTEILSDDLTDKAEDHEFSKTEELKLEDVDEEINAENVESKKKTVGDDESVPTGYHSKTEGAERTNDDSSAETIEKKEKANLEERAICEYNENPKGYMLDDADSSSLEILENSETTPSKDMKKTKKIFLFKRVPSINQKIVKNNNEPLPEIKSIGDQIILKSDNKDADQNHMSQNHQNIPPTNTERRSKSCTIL

In the case of “^35S-labeled RAB8A-T22N (GDP-locked form), in vitro translated (from UniProt P61006 1-207) (natural protein)”, the fold less association than WT-RPGR came out at 5 fold.
